Results reported in patent publication US20070134248A1 (GENITOPE, published 2007).
Values belong to the binder of their own block, whether it stands above or below them.

Legend:
628 = target: T1, 628; experiment: ELISA
T1 construct: immunogen of fusions 20 and 21; also called PIN628; PIN628 fully human Id protein (HV3-7 / KV4-1)
From the text: (§1) Before specificity screening, all of the clonal immunogen-positive hybridoma supernatants were re-screened on the immunogen, a non-family member Id protein, and KLH, if animals were immunized with Id protein that has been conjugated KLH. As described above, this screen identifies HC-specific clones but not mAbs against the light chain constant region. Clones identified positive to the immunogen and KLH were […]. Those found positive to the immunogen but not to the non-family member Id protein or KLH were tittered on the immunogen. In addition to normalizing for different binding affinities and concentrations, each hybridoma supernatant was titered on the fully human form of the Id protein used as the immunogen(s) for the V regions. The titer or dilution resulting in an ELISA absorbance of 2.5 to 3 OD after 30 min. incubation time was then used. Hybridoma specificity was determined by screening against available Id proteins expressing the same HV and KV or LV as well as different HV, KV and LV. The final ELISA results are expressed as follows: 0 (<0.5 OD),1 (0.5-1.0 OD), or 4 (1-4 OD). Positive hybridoma supernatants are categorized according to specificity: anti-Id, anti-constant region (HC, KC or LC), or V region (HV, KV, LV family or family member).
(§2) In general, the fully human Id protein or proteins containing the immunogen V regions were coated onto 96-well ELISA plates at 2.5-5 ug/mL in carbonate buffer pH 9.6 and incubated at 4° C. for up to 14 days. On the day of the ELISA, plates were brought to RT and blocked with Tris-Tween-20, pH 7.6 for 15-60 min. at RT. Following a NaCl and Triton X-100 wash, diluted hybridoma cell culture supernatants were incubated overnight at 4° C. Hybridoma supernatant dilutions ranged from 1:2 to 1:25 and were prepared in PBS with 5% BSA. Plates were washed and incubated with HRP-conjugated goat anti-mouse IgG-specific detecting antibody. A chromogenic substrate (TMB) was used to measure the amount of mouse antibody bound to each well. The reaction was stopped at or before 30 minutes with IN H2SO4 and plates were read immediately. Absorbency readings at 450 nm ranging between 0-4 OD and using Molecular Devices plate reader and SOFTMAX PRO software.

[1] = target: T2, PIN149 fully human Id protein (HV3-23 / KV4-1) (human); experiment: ELISA
T2 construct: patient tumour-derived idiotype immunoglobulin used as antigen; recombinant, two identical heavy and two identical light chains; also called Immunogen (for 3C9, 6C9, 10H7, 15E1); not shown: human immunoglobulin heavy chain constant region, isotype G3 (HCG3); human kappa light chain constant region (KC)
From the text: as §1, §2

913 = target: T3, 913; experiment: ELISA
T3 construct: also called PIN913; PIN913 fully human Id protein (HV4-59 / KV4-1)
From the text: as §1, §2

[2] = target: T4, PIN185 fully human Id protein (human); experiment: ELISA
T4 construct: patient idiotype immunoglobulin used as control antigen
From the text: as §1, §2

[3] = target: T2, PIN149 fully human Id protein (HV3-23 / …); experiment: SPR (BIACORE 2000), mAb captured on anti-mouse surface, fully human Id protein as analyte, 25 C, single site model
Protocol: (§3) Binding constants were also determined for three of the sequenced clones (3C9, 10H7, and 20H5), as well as for two additional clones (6C9 and 15E1). The association and disassociation rates were measured by surface plasmon resonance using a BIACORE 2000 machine.
(§4) In addition, based on ELISA results, PIN185 was used as a positive control Id protein for 10H7 and 15E1 and a negative control Id protein for 3C9 and 6C9 and PIN149 was used as a non-binding Id protein for 20H5. Each mAb was captured onto an anti-mouse surface and tested for binding to the fully human Id protein. Following the mAb capture phase of the assay for the (@2 ug/ml), the fully human Id proteins were all diluted to a starting concentration of 250 nM and tested in a three fold dilution series. Each concentration was tested in duplicate. The running buffer contained PBS plus 0.005% tween-20 and 0.1 mg/ml BSA as a carrier. Binding data were collected at 25° C. […] The other data sets all fit well to a single site interaction model.

[4] = target: T4, PIN185 fully human Id protein; experiment: as above
Protocol: as §3, §4

[5] = target: T5, PIN574 fully human Id protein (HV4-39 / LV1-40) (human); experiment: as above
T5 construct: patient tumour-derived idiotype immunoglobulin used as antigen; fully human form; also called Immunogen (for 20H5); not shown: human immunoglobulin heavy chain constant region, isotype G3 (HCG3); human lambda light chain constant region (LC)
Protocol: as §3, §4

[6] = target: T2, PIN149 fully human Id protein (HV3-23 / …); experiment: SPR (BIACORE 2000), mAb captured on anti-mouse surface, fully human Id protein as analyte
Protocol: as §3, §4

116 = target: T6, 116; experiment: ELISA
T6 construct: immunogen of fusions 15, 16 and 18; coated in its fully human form; also called PIN116; PIN116 fully human Id protein (HV1-46 / LV2-8)
From the text: as §1, §2

[7] = target: T5, PIN574 fully human Id protein (HV4-39 / …); experiment: ELISA
From the text: as §1, §2

662 = target: T7, 662; experiment: ELISA
T7 construct: also called PIN662; PIN662 fully human Id protein (HV3-48 / LV2-8)
From the text: as §1, §2

647 = target: T8, 647; experiment: ELISA
T8 construct: immunogen of fusion 17; also called PIN647; PIN647 fully human Id protein (HV3-48 / LV2-14)
From the text: as §1, §2

T5 sequence (VH, as listed by the source, chain 1 of 2): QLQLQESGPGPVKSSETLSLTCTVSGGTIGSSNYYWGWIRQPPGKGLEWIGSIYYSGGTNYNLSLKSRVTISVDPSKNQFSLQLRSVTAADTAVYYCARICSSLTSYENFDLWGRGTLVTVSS
T5 sequence (VL, as listed by the source, chain 2 of 2): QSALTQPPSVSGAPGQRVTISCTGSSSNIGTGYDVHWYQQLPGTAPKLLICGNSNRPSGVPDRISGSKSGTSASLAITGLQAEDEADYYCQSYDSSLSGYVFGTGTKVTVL
T2 sequence (VH, as listed by the source, chain 1 of 2): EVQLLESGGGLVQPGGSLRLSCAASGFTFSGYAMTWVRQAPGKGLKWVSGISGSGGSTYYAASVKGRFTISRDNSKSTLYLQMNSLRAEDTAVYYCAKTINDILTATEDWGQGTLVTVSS
T2 sequence (VL, as listed by the source, chain 2 of 2): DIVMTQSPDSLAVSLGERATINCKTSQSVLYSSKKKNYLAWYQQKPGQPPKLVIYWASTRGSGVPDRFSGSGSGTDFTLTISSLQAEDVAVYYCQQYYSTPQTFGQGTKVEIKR
T1 sequence (VH, as listed by the source, chain 1 of 2): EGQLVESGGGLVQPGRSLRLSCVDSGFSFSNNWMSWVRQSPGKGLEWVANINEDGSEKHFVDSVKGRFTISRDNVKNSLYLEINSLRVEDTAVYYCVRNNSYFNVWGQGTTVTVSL
T1 sequence (VL, as listed by the source, chain 2 of 2): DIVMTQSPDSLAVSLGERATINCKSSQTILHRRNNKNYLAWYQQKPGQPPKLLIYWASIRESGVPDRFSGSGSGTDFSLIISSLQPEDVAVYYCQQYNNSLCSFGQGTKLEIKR
T7 sequence (heavy, as listed by the source): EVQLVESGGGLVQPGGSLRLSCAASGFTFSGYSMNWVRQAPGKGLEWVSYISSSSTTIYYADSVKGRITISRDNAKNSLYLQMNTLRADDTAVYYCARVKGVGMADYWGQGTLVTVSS
T3 sequence (heavy, as listed by the source): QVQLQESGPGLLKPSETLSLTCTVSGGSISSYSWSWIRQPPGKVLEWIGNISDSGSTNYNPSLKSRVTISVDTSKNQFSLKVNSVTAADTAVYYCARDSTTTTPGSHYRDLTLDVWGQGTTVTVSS
T6 sequence (VH, as listed by the source, chain 1 of 2): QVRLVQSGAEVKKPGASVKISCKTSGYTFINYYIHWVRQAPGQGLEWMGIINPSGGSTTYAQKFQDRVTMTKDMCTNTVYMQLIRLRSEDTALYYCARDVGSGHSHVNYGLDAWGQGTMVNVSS
T6 sequence (V domain, as listed by the source, chain 2 of 2): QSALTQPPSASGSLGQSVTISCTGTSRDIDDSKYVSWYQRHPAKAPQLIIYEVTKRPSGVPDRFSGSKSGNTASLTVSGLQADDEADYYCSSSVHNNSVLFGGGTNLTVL
T8 sequence (VH, as listed by the source, chain 1 of 2): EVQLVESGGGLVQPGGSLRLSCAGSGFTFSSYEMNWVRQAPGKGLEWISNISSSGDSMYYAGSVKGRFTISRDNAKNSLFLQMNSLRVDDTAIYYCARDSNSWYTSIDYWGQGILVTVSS
T8 sequence (VL, as listed by the source, chain 2 of 2): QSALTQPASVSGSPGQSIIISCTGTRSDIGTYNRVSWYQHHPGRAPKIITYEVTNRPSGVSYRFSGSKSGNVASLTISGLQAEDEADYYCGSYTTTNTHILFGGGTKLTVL

B1: mAb clone 10H7 (antibody, V domains shown)
VH: EVQLVESGGGLVKPGGSLKLSCTASGFTFSSYAMSWVRQSPEKRLEWVAEISSGGIHTYYSDTVTGRFSISRDNAKNSTLYLEMNSLRSEDTAIYYCARETTGTWGQGTLVTVSA
VL: QIVLTQSPAIMSASPGEKVTMTCSVSSSITYMHWFRQKPGTSPKLWIYTTSNLASGVPARFSGSGSGTSYSLTISRMEAEDAATYYCQQRSRYPFTFGSGTKLEIKR
notes: mouse hybridoma mAb from fusion 14 (immunogen PIN149 chimera-KLH)
ELISA score 628: 4 | ELISA score [1]: 4 | ELISA score 913: 4 | ELISA score [2]: 4 | Kd [3]: 0.83 nM | koff [3]: 3.8e-05 s⁻¹ | kon [3]: 45400 M⁻¹ s⁻¹ | Kd [4]: 3 nM | koff [4]: 9.9e-05 s⁻¹ | kon [4]: 33200 M⁻¹ s⁻¹

B2: mAb clone 20H5 (antibody, V domains shown)
VH: QVQLKESGPDLVAPSQSLSITCTVSGFSLTSYGVHWVRQPPGKGLEWLVVIWSDGSTTNNSPLKSRLSISKDNSKSQVFLKMNSLQTDDTAMYYCARHWGTTVVDAMDYWGQGTSVTVSS
VL: DIQMTQTTSSLSASLGDRVIISCRASQDIRNYLNWYQQKPDGTVKLLIYYTSQLHSGVPSRFSGSGSGTDYSLTINNLSEQEDIATYFCQQYDTLPWTFGGGTKLEIKR
notes: mouse hybridoma mAb from fusion 10 (immunogen fully human PIN574 Id protein)
Kd [5]: 1.92 nM | koff [5]: 0.000146 s⁻¹ | kon [5]: 75900 M⁻¹ s⁻¹ | binding result [6]: no binding

B5: mAb clone 3C9 (antibody, V domains shown)
VH: EVQLQQSGPELEKPGASVKISCKASGYSFTAYNMNWVKQNNGKSLEWIGNIDPYHGGTNYNQKFKGKATLTVDKSSSTAYMQLKSLTSEDYAVYYCARGGGDWSWFAYWGQGTLVTVSA
VL: DIVMTQSHKFMSTSVGDRVSITCKASQDVNTAVAWYQQKPGQSPKVLIYWASNRHTGVPDRFTGSGSGTDYTLTISSMQAEDLALYYCHQHYSTPWTFGGGTKLEIER
Kd [3]: 1.78 nM | koff [3]: 0.000134 s⁻¹ | kon [3]: 74900 M⁻¹ s⁻¹

B6: mAb clone 12C3 (antibody, V domains shown)
VH: EVKLVESGGGLVQPGGSLSLSCAASGFTYTDYYMNWVRQPPGKALEWLALIRNKANGYTTEYSASLKGRFTISRDNSQSILYLQMNALRAEDSATYYCVRENINYYFDYWGQGTTLTVSS
VL: DIVLTQSPASLAVSLGQRATISCRASESVEYFGASLMQWYQQKSGQPPKLLIRAATNVESGVPARFSGSGSGTDFSLNIHPVEEDDIAMYFCQQSRKVPWTFGGGTKLEIKR
notes: mouse hybridoma mAb from fusions 20/21 (PIN628 V regions as immunogen)
ELISA score 628: 4 | ELISA score 913: 4 | ELISA score [2]: 4

Results, then the binder that gave them:

binding result 116: no binding | ELISA score [7]: 4 | ELISA score 662: 4
B3: mAb clone 4H11 (antibody, V domains shown)
VH: EVKLVESGGGLVKPGGSLKLSCAASGFAFSNYDMSWVRQTPEKRLEWVATIRSDDSYTYYPDSVKGRFTISRDNARNTLYLQMSSLRSEDTAFYYCARREGNYAMDYWGQGTSVTVSS
VL: DIQMTQSPASLSVSVGETVTITCRASENIYSYLAWYQQKKGKSPQLLVYAATNLGDGVPTRFSGSGSGTQYSLKINSLQSEDFGSYYCQHFWGNPLTFGAGTKLELKR
notes: mouse hybridoma mAb

binding result 647: no binding | ELISA score 116: 4 | binding result [7]: no binding | ELISA score 662: 4
B4: mAb clone 15E8 (antibody, V domains shown)
VH: QVQLQQPGAELVMPGASVKMSCKASGYTFTDYWMHWVKQRPGQGLEWIGTIDTSDSYTNYNQKFKGKATLTVDESSSTAYMQLSSLTSEDSAVYYCVRWKKYGNYFFDYWGQGTTLTVSS
VL: DIVMTQSHKFMSTSVGDRVSITCKASQDVNTAVAWYQQKPGQSPKLLIYWASTRHTGVPDRFTGSGSGTDFSLTISSVQAEDLGLYYCQQCYSTPYAFGGGTKLEIKR
notes: mouse hybridoma mAb from fusion 16 (immunogen unconjugated fully human PIN116)
